Stoichiometry N data for 2 substances are collected here from PMC12622831.

Assay [1] deals with Dengue virus serotype 2 (ET300 strain) non-structural protein 1, C-terminally His-tagged, purified (Dengue virus serotype 2, strain ET300). As to the kind of experiment: SEC; purified His-tagged NS1, 0.5 mL on Superdex 200 increase 10/300 GL in PBS; fractions analysed by NS1 ELISA. On the technique in general: In gel filtration, larger molecules generally elute earlier.
Assay [2] has as its target Dengue virus serotype 2 (ET300 strain) non-structural protein 1, untagged recombinant, expressed in suspension HEK293 cells (Dengue virus serotype 2, strain ET300). In words: SEC; concentrated (about 10-fold, 520 μg/mL) NS1 expression medium, 0.5 mL on Superdex 200 increase 10/300 GL in PBS at 0.75 mL per min; NS1 in 0.25 mL fractions by ELISA and immunoblot.

In general, stoichiometry N refers to a count of units in the complex or per binding partner. Regarding “Dengue virus serotype 2 (ET300 strain) non-structural protein 1, C-terminally His-tagged, purified (natural protein)”, the stoichiometry N in assay [1] was found to be 6. As to “Dengue virus serotype 2 (ET300 strain) non-structural protein 1, untagged recombinant, expressed in suspension HEK293 cells (natural protein)”, in assay [2], the stoichiometry N is 6.
